# Measured values: US20020037514A1, “Identification of nuclear receptor-dependent coregulator recruitment” (priority 2000, published 2002)
# Assays:
# RARγ/RXRα heterodimer = molecular target: T1, RARγ/RXRα heterodimer (Homo sapiens, UniProt P13631); test: LXD peptide competition of ATRA-induced co-activator recruitment (Example 7, FIG. 8B); assay type: biochemical; conditions: DR-5 RARE, compared with the RARα/RXRγ experiment
# T1 sequence (P13631 1-454): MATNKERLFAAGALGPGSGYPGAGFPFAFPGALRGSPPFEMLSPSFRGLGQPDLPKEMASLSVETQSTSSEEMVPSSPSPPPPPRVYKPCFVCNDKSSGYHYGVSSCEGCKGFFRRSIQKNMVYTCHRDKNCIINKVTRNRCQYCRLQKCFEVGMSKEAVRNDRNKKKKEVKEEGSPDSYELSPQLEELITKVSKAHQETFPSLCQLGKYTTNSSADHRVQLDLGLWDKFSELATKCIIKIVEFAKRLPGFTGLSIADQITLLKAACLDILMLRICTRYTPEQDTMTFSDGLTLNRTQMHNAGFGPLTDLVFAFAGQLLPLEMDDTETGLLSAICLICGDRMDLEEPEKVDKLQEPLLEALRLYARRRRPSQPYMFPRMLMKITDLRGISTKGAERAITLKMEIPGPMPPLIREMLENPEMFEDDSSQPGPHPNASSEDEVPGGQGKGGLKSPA
# T1 sequence (P19793 1-462 partner): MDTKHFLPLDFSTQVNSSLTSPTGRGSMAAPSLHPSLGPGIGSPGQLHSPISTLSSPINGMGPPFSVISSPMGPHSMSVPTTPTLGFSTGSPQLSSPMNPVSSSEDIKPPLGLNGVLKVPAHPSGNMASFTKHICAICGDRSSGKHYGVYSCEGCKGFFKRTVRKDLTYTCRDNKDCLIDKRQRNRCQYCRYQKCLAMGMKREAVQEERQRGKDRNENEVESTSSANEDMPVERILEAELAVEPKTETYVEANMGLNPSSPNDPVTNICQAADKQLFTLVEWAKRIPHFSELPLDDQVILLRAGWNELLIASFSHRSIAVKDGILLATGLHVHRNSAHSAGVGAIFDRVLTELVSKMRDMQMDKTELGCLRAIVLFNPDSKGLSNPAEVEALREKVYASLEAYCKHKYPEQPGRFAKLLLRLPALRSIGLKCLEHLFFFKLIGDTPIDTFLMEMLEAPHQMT
# Text: (§1) Nolte, R. T. et al., Nature 395:137-143 (1998). We addressed the importance of each of the three LXDs in mediating co-activator-receptor interaction using synthetic peptides comprising the LXD1, LXD2 or LXD3 amino acid sequences as competitors with SRC-1 in the DNA modified immunoprecipitation methods of the present invention. These peptides have the following amino acid sequences (with the characteristic LXXLL motif shown in bold):
# (§2) Transfection, DR-5 oligonucleotide treatment, ligand treatment, immunoprecipitation and detection of associated co-factors were performed essentially as shown in the previous Examples. CV-1 cells were transfected with plasmids expressing either RARα/RXRγ-V5 or with RARγ/RXRα-V5. Synthetic LXD peptides were added to the cell lysate before the addition of retinoids at a concentration of 20 (ACTR) and 40 (SRC-1) […].
# [1] = molecular target: T2, RARα-V5/RXRγ/DR-5 ternary complex (Homo sapiens, UniProt P10276); test: LXD peptide competition of ATRA-induced co-activator recruitment (Example 7, FIG. 8A); assay type: biochemical; conditions: DR-5 RARE; for effect of peptide on ATRA-induced recruitment of SRC-1: SRC-1 peptides at 40 μl (so in the source); for effect of peptide on ATRA-induced recruitment of ACTR: ACTR peptides at 20 μl (so in the source)
# T2 construct: the nuclear receptor subunits used in the invention are full length nuclear receptor monomer subunits; expressed in transfected cells; host or cells: CV-1 (green monkey kidney), whole-cell lysate
# T2 sequence (P10276 1-462): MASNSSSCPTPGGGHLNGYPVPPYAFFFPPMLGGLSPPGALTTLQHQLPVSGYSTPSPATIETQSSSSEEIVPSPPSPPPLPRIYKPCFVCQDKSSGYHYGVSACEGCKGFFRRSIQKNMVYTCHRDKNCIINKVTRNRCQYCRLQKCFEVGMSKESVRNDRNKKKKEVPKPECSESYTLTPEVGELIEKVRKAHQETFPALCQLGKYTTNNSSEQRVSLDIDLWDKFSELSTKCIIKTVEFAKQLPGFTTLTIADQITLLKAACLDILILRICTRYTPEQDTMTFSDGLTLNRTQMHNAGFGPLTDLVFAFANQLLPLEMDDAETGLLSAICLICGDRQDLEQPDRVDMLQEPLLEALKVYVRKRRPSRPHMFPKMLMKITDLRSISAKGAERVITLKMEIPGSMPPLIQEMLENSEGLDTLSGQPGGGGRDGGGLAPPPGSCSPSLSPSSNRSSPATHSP
# T2 sequence (P28705 1-463 partner): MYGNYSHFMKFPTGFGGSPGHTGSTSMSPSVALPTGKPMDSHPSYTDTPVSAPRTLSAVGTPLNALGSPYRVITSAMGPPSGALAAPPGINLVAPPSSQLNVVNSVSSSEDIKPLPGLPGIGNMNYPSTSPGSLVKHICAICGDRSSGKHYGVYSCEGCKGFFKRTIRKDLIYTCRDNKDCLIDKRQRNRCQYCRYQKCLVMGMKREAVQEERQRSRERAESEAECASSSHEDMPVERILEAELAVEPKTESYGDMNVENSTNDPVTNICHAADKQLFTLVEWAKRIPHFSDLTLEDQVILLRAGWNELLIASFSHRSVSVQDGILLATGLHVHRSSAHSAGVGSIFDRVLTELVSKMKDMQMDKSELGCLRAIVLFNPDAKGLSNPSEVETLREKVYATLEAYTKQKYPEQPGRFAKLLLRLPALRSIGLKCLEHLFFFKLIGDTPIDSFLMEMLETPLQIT
# Text: as §1, §2
# [2] = molecular target: RARα/RXR heterodimer bound to a DR-5 retinoic acid receptor response element (Example 9) (human) (UniProt P10276); test: DNA dependent co-IP with DR-5 RARE, Western anti-SRC-1; 1 uM ligand AGN194365
# [3] = molecular target: RARα/RXR heterodimer bound to a DR-5 retinoic acid receptor response element (Example 9) (human) (UniProt P10276); test: DNA dependent co-IP with DR-5 RARE, Western anti-SRC-1; 1 uM ligand AGN194794, 196382 or 196412 (which ligand gives which end is not told)
# [4] = molecular target: RARβ-V5/RXRα heterodimer (human) (UniProt P10826); test: anti-V5 co-IP from CV-1 lysate, Western anti-SRC-1; 1 uM AGN 194204 with DR-5 RARE against 1 uM TTNPB
# RARβ-V5/RXRα heterodimer (human), sequence (P10826 other isoform, or with tags, fused parts or gaps): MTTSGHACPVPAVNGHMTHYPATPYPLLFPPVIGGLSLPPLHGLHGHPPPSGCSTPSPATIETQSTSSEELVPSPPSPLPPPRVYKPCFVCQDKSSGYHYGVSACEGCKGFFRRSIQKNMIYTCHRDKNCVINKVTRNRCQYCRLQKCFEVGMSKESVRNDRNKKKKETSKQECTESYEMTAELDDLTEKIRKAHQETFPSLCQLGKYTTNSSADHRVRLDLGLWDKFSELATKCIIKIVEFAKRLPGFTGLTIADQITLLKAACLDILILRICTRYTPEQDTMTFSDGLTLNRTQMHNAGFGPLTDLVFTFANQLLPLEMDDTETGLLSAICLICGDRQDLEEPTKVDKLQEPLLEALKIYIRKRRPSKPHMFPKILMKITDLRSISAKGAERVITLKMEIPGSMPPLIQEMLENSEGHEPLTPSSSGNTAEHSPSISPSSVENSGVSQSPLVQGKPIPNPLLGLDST
# RARγ-V5/RXRα heterodimer [5] = molecular target: T3, RARγ-V5/RXRα heterodimer (Homo sapiens, UniProt P13631); test: anti-V5 co-IP from CV-1 lysate, Western anti-N-CoR; DR-5 RARE, 1 uM ligand
# RARγ-V5/RXRα heterodimer [6] = molecular target: T3, RARγ-V5/RXRα heterodimer; test: DNA modified immunoprecipitation, co-repressor N-CoR recruitment (Example 6); assay type: biochemical; conditions: ligand 1 μM
# Experimental: Immunoprecipitation with mouse anti-V5 antibody and Western analysis were conducted as set forth above.
# [7] = molecular target: RARα/RXR heterodimer bound to a DR-5 retinoic acid receptor response element (Example 9) (human) (UniProt P10276); test: DNA dependent co-IP with DR-5 RARE, Western anti-ACTR; 1 uM ligand AGN196412
molecule,measurement,setting,value
KYSQTSHKLVQLLTTTAEQQLR (Nuclear co-activator LXD-containing peptide) [SRC-1 LXD1],amount of SRC-1 associated in the presence of peptide,RARγ/RXRα heterodimer,somewhat greater
same,effect of peptide on ATRA-induced recruitment of SRC-1,[1],no effect
"nuclear receptor co-activator SRC-1, endogenously expressed by CV-1 cells (other; other documents disagree on this pair)",% recruitment compared to TTNPB,[2],65%
same,% recruitment relative to TTNPB,[3],23 to 32%
"nuclear receptor co-activator SRC-1, endogenously expressed by CV-1 cells",amount of SRC-1 detected compared to treatment with TTNPB,[4],30%
nuclear receptor co-repressor N-CoR,fold increase in N-CoR recruitment with AGN 193109 compared to AGN 193840,RARγ-V5/RXRα heterodimer [5],2 fold
LLQEKHRTLHKLLQNGNSPAEV (LLQEKHRILHKLLQNGNSPAEV; Nuclear co-activator LXD-containing peptide) [ACTR LXD2],effect of peptide on ATRA-induced recruitment of ACTR,[1],abolished
KESKDHQLLRYLLDKDEKDLRS (Nuclear co-activator LXD-containing peptide) [SRC-1 LXD3],effect of peptide on ATRA-induced recruitment of SRC-1,[1],completely abolished
CC1(C)CCC(c2ccc(F)cc2)c2cc(C#Cc3ccc(C(=O)O)cc3)ccc21 (centres unmarked) [AGN 193840],N-CoR recruitment,RARγ-V5/RXRα heterodimer [6]; with DR-5 RARE 0.5 μg/ml,led to N-COR recruitment
nuclear receptor co-activator ACTR (other; other documents disagree on this pair),% recruitment relative to TTNPB,[7],65%
Cc1ccc(C2CCC(C)(C)c3ccc(C#Cc4ccc(C(=O)O)cc4)cc32)cc1 (centres unmarked) [AGN 193109],N-CoR recruitment compared to AGN 193840,RARγ-V5/RXRα heterodimer [6]; with DR-5 RARE,approximately two-fold increase
same,N-CoR recruitment,RARγ-V5/RXRα heterodimer [6]; with DR-5 RARE 0.5 μg/ml,led to N-COR recruitment
same,N-CoR recruitment,RARγ-V5/RXRα heterodimer [6]; with G-5-G DNA element instead of DR-5 RARE,failed to result in the detection of co-repressor
LESKGHKKLLQLLTCSSDDRGH (Nuclear co-activator LXD-containing peptide) [ACTR LXD1],effect of peptide on ATRA-induced recruitment of ACTR,[1],abolished
